Reference: patent publication CN114031685A (INST MILITARY MEDICINE ACADEMY MILITARY SCIENCES PLA, dated 2022)

What was measured:
[1] = biological target: Omicron株 S蛋白 (on pseudovirus) (SARS-CoV-2 Omicron株 (B.1.1.529)); experiment: cell-based or functional assay
[2] = biological target: Beta株 S蛋白 (on pseudovirus / live virus) (SARS-CoV-2 Beta株 (B.1.351)); experiment: cell-based or functional assay
[3] = biological target: Delta株 S蛋白 (on pseudovirus / live virus) (SARS-CoV-2 Delta株 (B.1.617.2)); experiment: cell-based or functional assay
[4] = biological target: Alpha株 S蛋白 (on pseudovirus) (SARS-CoV-2 Alpha株 (B.1.1.7)); experiment: cell-based or functional assay
[5] = biological target: Gamma株 S蛋白 (on pseudovirus) (SARS-CoV-2 Gamma株 (P.1)); experiment: cell-based or functional assay
[6] = biological target: SARS-CoV-2 WT S-ECD蛋白 (新冠野生株, Genbank NC_045512.2) (SARS-CoV-2, UniProt P0DTC2 14-1213)

B1: 抗SARS-CoV-2全人源单克隆抗体ZW2G10 (antibody, V domains shown)
VH: EVQLVESGGGLVQPGRSLRLSCAASGFTFDDYAMHWVRQAPGKGLEWVSGITWNSGTIGYADSVKGRFIISRDNAKNSLHLQMNSLRVEDTALYYCAKDNSDYSGYYWELENYGMDVWGQGTTVTVSS
VL: QSVLTQPPSVSGAPGQRVTISCTGSSSNIGAGYDVHWYQQLPGTAPKLLIYDNNNRPSGVPDRFSGSKSGTSASLAITGLQAEDEADYYCQSFDSSLSGVVFGGGTRLTVLR
notes: also called 单抗ZW2G10
假病毒中和 EC50 [1]: 0.0193 µg/mL
假病毒中和 EC50 [2]: 0.0184 µg/mL
真病毒中和 EC50 (Vero E6) [2]: 1.42 µg/mL
假病毒中和 EC50 [3]: 0.0362 µg/mL
真病毒中和 EC50 (Vero E6) [3]: 0.71 µg/mL
假病毒中和 EC50 [4]: 0.0141 µg/mL
假病毒中和 EC50 [5]: 0.0156 µg/mL
Kd [6]: 0.243 nM
